Results: publication PMC2770665

T1: EcoRII-C (UniProt P14633 183-404)
T1 sequence: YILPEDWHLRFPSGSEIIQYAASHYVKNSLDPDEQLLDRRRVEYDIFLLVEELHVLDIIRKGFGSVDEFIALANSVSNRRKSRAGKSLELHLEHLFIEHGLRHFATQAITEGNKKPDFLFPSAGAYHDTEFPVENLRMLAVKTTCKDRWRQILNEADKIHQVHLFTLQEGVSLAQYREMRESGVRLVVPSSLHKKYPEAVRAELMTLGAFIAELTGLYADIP

T2: EcoRII-N (His-tagged) (UniProt P14633 1-180)
T2 sequence: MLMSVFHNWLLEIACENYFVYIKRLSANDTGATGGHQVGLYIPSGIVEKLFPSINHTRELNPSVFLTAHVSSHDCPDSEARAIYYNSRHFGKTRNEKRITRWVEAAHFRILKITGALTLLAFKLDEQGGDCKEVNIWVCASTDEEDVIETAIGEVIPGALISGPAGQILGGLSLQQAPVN

B1: DM 16-mer (dsDNA)
DNA 1: CGTAGCCTGGTCGATC
DNA 2: GATCGACCAGGCTACG
modifications: 5-methylcytosine at strand 1 position 7 and strand 2 position 8
B2: HM(A) 16-mer (dsDNA)
DNA 1: CGTAGCCTGGTCGATC
DNA 2: GATCGACCAGGCTACG
modifications: 5-methylcytosine at strand 2 position 8 (second C of CCAGG)
B3: T/2 25-mer (dsDNA)
DNA 1: CGCACGACTTCCTGGAAGAGCACGC
DNA 2: GCGTGCTCTTCCAGGAAGTCGTGCG
modifications: strand 2 position 13 is 2-aminopurine (written A) replacing central A
B4: HM(T) 16-mer (dsDNA)
DNA 1: CGTAGCCTGGTCGATC
DNA 2: GATCGACCAGGCTACG
modifications: 5-methylcytosine at strand 1 position 7 (second C of CCTGG)

Experiments:
EcoRII-C = biological target: T1, EcoRII-C; experiment: EMSA
EcoRII-N (His-tagged) = biological target: T2, EcoRII-N (His-tagged); experiment: EMSA

Row | Binder | binding result (EcoRII-C) | binding result (EcoRII-N (His-tagged))
1 | B1 | no binding | 
2 | B2 |  | no binding
3 | B3 |  | no binding
4 | B4 |  | no binding
